Measurements published in patent US20150267232A1, “IN VIVO AND IN VITRO CARBENE INSERTION AND NITRENE TRANSFER REACTIONS CATALYZED BY HEME ENZYMES” (California Institute of Technology, priority 2012, published 2015).
Substitutions are numbered along the chain they refer to. Numbers in names are those of the source. Where “and” joins values, the source holds several entries; their conditions need not be identical. Identical values can stand only once.

Assays:
Assay type in all cases: biochemical
[1] = Small-scale anaerobic C—H amination with purified enzymes, azide 1; details: for Product (3) / TTN on substrate 1: 1% loading of hemin; for % ee: 0.1 mol % catalyst loading, (S−R)/(S+R)
Summary of the method: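 Purified P450 or P411 enzymes (0.1-0.5% catalyst loading) in 400 μL reactions of 0.1 M potassium phosphate pH 8.0 with a catalase/glucose oxidase oxygen-depletion system were made anaerobic under argon, given 10 μL of 80 mM arylsulfonyl azide in DMSO, and stirred 24 h at room temperature. After HCl quench and acetonitrile addition, sultam was quantified by HPLC at 220 nm against an internal standard; enantioselectivity was measured by chiral HPLC.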

[2] = Small-scale anaerobic C—H amination with purified enzymes, azide 4
Description: (§1) Hemin also was capable of catalyzing this reaction when reduced with dithionite (Table 13).
(§2) Small scale reactions containing either 0.1% loading of ABC-CIS or ABC-T268A or 1% loading of hemin with azides 1, 4, or 6 according to standard procedures.
(§3) Small-scale reactions (400 μL) were conducted in 2 mL crimp vials (Agilent Technologies, San Diego, Calif.) containing buffer (0.1 M potassium phosphate pH 8.0), enzyme (0.1-0.5% catalyst loading) and oxygen depletion system (10× stock solution containing 14,000 U/mL catalase, 1,000 U/mL glucose oxidase dissolved in 0.1 M KPi pH 8.0). Enzyme (P450 or P411) solution and oxygen depletion mixture were added to the vial with a small stir bar before crimp-sealing. Portions of phosphate buffer (190 μL, 0.1 M, pH=8.0), glucose (40 μL, 250 mM) and NADPH (40 μL, 20 mM), or multiples thereof, were combined in a larger crimp sealed vial and degassed by sparging with argon for at least 5 min. In the meantime, the headspace of the sealed 2 mL reaction vial with the P450 solution was made anaerobic by flushing argon over the protein solution (with no bubbling). The buffer/reductant/glucose solution (270 μL) was syringed into the reaction vial with continuous argon purge of the vial headspace. An arylsulfonyl azide solution in DMSO (10 μL, 80 mM) was added to the reaction vial via a glass syringe, and the reaction was left stirring for 24 h at room temperature under positive argon pressure. Final concentrations of the reagents were typically: 2 mM arylsulfonyl azide, 2 mM NADPH, 25 mM glucose, 2 or 10 μM P450. Reactions were quenched by adding 30 μL 3 M HCl under argon. To the vials were then added acetonitrile (430 uL) and internal standard (o-toluenesulfonamide 10 mM in 50% acetonitrile 50% water, 1 mM final concentration). […] A portion (20 μL) of the supernatant was then analyzed by HPLC. […] Sultam formation was quantified comparison of integrated peak areas of internal standard and sultam at 220 nm to a calibration curve made using synthetically produced sultam and internal standard.

[3] = Small-scale anaerobic C—H amination with purified enzymes, azide 6
Description: as §1, §2, §3

[4] = 0.1 mol % catalyst loading (2 μM), 2 mM azide 1, 2 mM NADPH, benzosultam 3
[5] = catalyst loading 0.5 mol %, NADPH, anaerobic

For hemin, the “Product (3) / TTN on substrate 1” value [1] was 3.1, the “Product (3) / TTN on substrate 1” value ([1]; listed as hemin) was 3 and the “% activity” value ([1]; CS-P450 + Hemin) was 0%. For the same molecule, the TTN ([1]; CS-P450 + Hemin (2 μM hemin)) was 0, the “stereochemical outcome of product 3” value ([1]; reaction with hemin) was “racemic” and the “activity on substrate 4” value ([2]; free hemin, 1% loading) was “no measurable activity”. For the same molecule, the “Product (7) / TTN on substrate 6” value ([3]; 1% loading of hemin) was 55.

B1: P450BM3: wild-type cytochrome P450BM3 from Bacillus megaterium (SEQ ID NO: 1) (protein, listed as Bacillus megaterium)
chain: TIKEMPQPKTFGELKNLPLLNTDKPVQALMKIADELGEIFKFEAPGRVTRYLSSQRLIKEACDESRFDKNLSQALKFVRDFAGDGLFTSWTHEKNWKKAHNILLPSFSQQAMKGYHAMMVDIAVQLVQKWERLNADEHIEVPEDMTRLTLDTIGLCGFNYRFNSFYRDQPHPFITSMVRALDEAMNKLQRANPDDPAYDENKRQFQEDIKVMNDLVDKIIADRKASGEQSDDLLTHMLNGKDPETGEPLDDENIRYQIITFLIAGHETTSGLLSFALYFLVKNPHVLQKAAEEAARVLVDPVPSYKQVKQLKYVGMVLNEALRLWPTAPAFSLYAKEDTVLGGEYPLEKGDELMVLIPQLHRDKTIWGDDVEEFRPERFENPSAIPQHAFKPFGNGQRACIGQQFALHEATLVLGMMLKHFDFEDHTNYELDIKETLTLKPEGFVVKAKSKKIPLGGIPSPSTEQSAKKVRKKAENAHNTPLLVLYGSNMGTAEGTARDLADIAMSKGFAPQVATLDSHAGNLPREGAVLIVTASYNGHPPDNAKQFVDWLDQASADEVKGVRYSVFGCGDKNWATTYQKVPAFIDETLAAKGAENIADRGEADASDDFEGTYEEWREHMWSDVAAYFNLDIENSEDNKSTLSLQFVDSAADMPLAKMHGAFSTNVVASKELQQPGSARSTRHLEIELPKEASYQEGDHLGVIPRNYEGIVNRVTARFGLDASQQIRLEAEEEKLAHLPLAKTVSVEELLQYVELQDPVTRTQLRAMAAKTVCPPHKVELEALLEKQAYKEQVLAKRLTMLELLEKYPACEMKFSEFIALLPSIRPRYYSISSSPRVDEKQASITVSVVSGEAWSGYGEYKGIASNYLAELQEGDTITCFISTPQSEFTLPKDPETPLIMVGPGTGVAPFRGFVQARKQLKEQGQSLGEAHLYFGCRSPHEDYLYQEELENAQSEGIITLHTAFSRMPNQPKTYVQHVMEQDGKKLIELLDQGAHFYICGDGSQMAPAVEATLMKSYADVHQVSEADARLWLQQLEEKGRYAKDVWAG
modifications: cytochrome P450NADPH-P-450 reductase precursor, cytochrome P450 (BM3), CYP102A1
With B1 the TTN [1, 4] was 2.1 and the “TTN (C—H amination product 3)” value [1, 5] was 4.

B2: BM3-T268A: P450BM3 variant: T268A (protein, listed as Bacillus megaterium)
chain: B1 chain with T268A
modifications: cytochrome P450NADPH-P-450 reductase precursor, cytochrome P450 (BM3), CYP102A1
In the case of B2, the TTN [1, 4] is reported as 15, the “% ee” value ([1]; benzosultam 3) is reported as 36% and the “activity with reductant NADPH” value ([1]; NADPH (2 mM), 0.1 mol % loading, azide 1) is reported as 22. The “TTN (C—H amination product 3)” value [1, 5] was 28 and the “activity with reductant Dithionite” value ([1]; dithionite (2 mM), 0.1 mol % loading, azide 1) was 25.

B3: ABC-CIS: BM3-CIS + C400S (protein, listed as Bacillus megaterium)
chain: TIKEMPQPKTFGELKNLPLLNTDKPVQALMKIADELGEIFKFEAPGRVTRYLSSQRLIKEACDESRFDKNLSQALKFARDFAGDGLVTSWTHEKNWKKAHNILLPSFSQQAMKGYHAMMVDIAVQLVQKWERLNADEHIEVSEDMTRLTLDTIGLCGFNYRFNSFYRDQPHPFIISMVRALDEVMNKLQRANPDDPAYDENKRQFQEDIKVMNDLVDKIIADRKARGEQSDDLLTQMLNGKDPETGEPLDDGNIRYQIITFLIAGHEATSGLLSFALYFLVKNPHVLQKVAEEAARVLVDPVPSYKQVKQLKYVGMVLNEALRLWPTAPAFSLYAKEDTVLGGEYPLEKGDEVMVLIPQLHRDKTVWGDDVEEFRPERFENPSAIPQHAFKPFGNGQRASIGQQFALHEATLVLGMMLKHFDFEDHTNYELDIKETLTLKPKGFVVKAKSKKIPLGGIPSPSTEQSAKKVRKKAENAHNTPLLVLYGSNMGTAEGTARDLADIAMSKGFAPQVATLDSHAGNLPREGAVLIVTASYNGHPPDNAKQFVDWLDQASADEVKGVRYSVFGCGDKNWATTYQKVPAFIDETLAAKGAENIADRGEADASDDFEGTYEEWREHMWSDVAAYFNLDIENSEDNKSTLSLQFVDSAADMPLAKMHGAFSTNVVASKELQQPGSARSTRHLEIELPKEASYQEGDHLGVIPRNYEGIVNRVTARFGLDASQQIRLEAEEEKLAHLPLAKTVSVEELLQYVELQDPVTRTQLRAMAAKTVCPPHKVELEALLEKQAYKEQVLAKRLTMLELLEKYPACEMKFSEFIALLPSIRPRYYSISSSPRVDEKQASITVSVVSGEAWSGYGEYKGIASNYLAELQEGDTITCFISTPQSEFTLPKDPETPLIMVGPGTGVAPFRGFVQARKQLKEQGQSLGEAHLYFGCRSPHEDYLYQEELENAQSEGIITLHTAFSRMPNQPKTYVQHVMEQDGKKLIELLDQGAHFYICGDGSQMAPAVEATLMKSYADVHQVSEADARLWLQQLEEKGRYAKDVWAG
modifications: cytochrome P450NADPH-P-450 reductase precursor, cytochrome P450 (BM3), CYP102A1
notes: BM3-CIS + C400S
For B3, the “Product (3)” value ([1]; 0.1% loading, azide 1, TTN) was 310, the TTN [1, 4] was 313 and 310 and the “% ee” value ([1]; benzosultam 3) was 67%. The TTN ([1]; [NADPH] 0 mM) was 0, the “[sultam]” value ([1]; [NADPH] 0 mM) was 0 mM and the TTN ([1]; [NADPH] 0.01 mM) was 27. The “[sultam]” value ([1]; [NADPH] 0.01 mM) was 0.053 mM, the TTN ([1]; [NADPH] 0.02 mM) was 82 and the “[sultam]” value ([1]; [NADPH] 0.02 mM) was 0.164 mM. The TTN ([1]; [NADPH] 0.1 mM) was 243, the “[sultam]” value ([1]; [NADPH] 0.1 mM) was 0.486 mM and the TTN ([1]; [NADPH] 2 mM) was 161. The “[sultam]” value ([1]; [NADPH] 2 mM, 0.1 mol % loading) was 0.322 mM, the “TTN (C—H amination product 3)” value [1, 5] was “over 140” and the “yield of 3 by HPLC” value [1, 5] was 73%. The “Product (5)” value ([2]; 0.1% loading, azide 4) was 26 and the “Product (7)” value ([3]; 0.1% loading, azide 6) was 36.
